We go through one molecule from PMC8199271.

The target of the assay is T1, wild-type MBP–CHIP (C-terminus of HSC70-interacting protein, encoded by STUB1) (human), Q9UNE7.
T1 chain: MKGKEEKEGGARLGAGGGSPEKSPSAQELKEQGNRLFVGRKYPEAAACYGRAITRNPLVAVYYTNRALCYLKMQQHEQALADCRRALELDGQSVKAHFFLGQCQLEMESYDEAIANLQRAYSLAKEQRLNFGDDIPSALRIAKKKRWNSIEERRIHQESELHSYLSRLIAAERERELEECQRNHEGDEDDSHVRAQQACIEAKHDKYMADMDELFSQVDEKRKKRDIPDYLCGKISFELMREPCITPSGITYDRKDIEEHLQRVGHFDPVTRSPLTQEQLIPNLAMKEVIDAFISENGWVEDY
Put plainly: native gel or EMSA; 5 µg MBP–CHIP in Native Sample Buffer on a 10% gel, 4 °C, 3 h at 140 V, Tris/glycine (25 mM Tris, 192 mM glycine) pH 8.3; Coomassie staining, bands analysed by Fiji (ImageJ); self-association (monomer, dimer, higher-order oligomers). As to conditions: remark: other sources report otherwise. In general terms: Mobility shift assays separate free from complexed probe on a gel.

B1: wild-type MBP–CHIP (C-terminus of HSC70-interacting protein, encoded by STUB1), Q9UNE7-1 1-303 (natural protein)
chain: T1 chain
The term stoichiometry N denotes a count of units in the complex or per binding partner. Regarding B1, the stoichiometry N worked out at 2.
